The values that follow come from US7291492B2, “Histone deacetylase 9” (The Institute of Cancer Research, priority 2001, dated 2007).

The subject of the data set is histone H4 peptide. Kind of data set: in-vitro histone deacetylase assay with anti-FLAG immunoprecipitated HDAC, [3H]acetyl-labelled histone H4 peptide. The data set is classed as biochemical. As to conditions: FLAG-tagged HDAC from 293T cells, FIG. 5A. As to the method: A. HDAC9 deacetylates histone H4 peptide. 293T cells were transfected with FLAG-tagged HDAC. Whole cell lysates were produced and the HDACs precipitated with anti-FLAG agarose. The beads were assayed for their ability to deacetylate a [^3H]acetyl-labelled peptide corresponding to the N-Terminus of histone H4. Free acetate was extracted and measured by scintillation counting.
Higher activities of HDAC9 have been detected towards peptide substrates derived from histone H3 than from histone H4 (FIGS. 7A and B).

B1: HDAC9: wild-type histone deacetylase 9, a 1069 amino acid polypeptide, class II histone deacetylase (protein)
chain: MHSMISSVDVKSEVPVGLEPISPLDLRTDLRMMMPVVDPVVREKQLQQELLLIQQQQQIQKQLLIAEFQKQHENLTRQHQAQLQEHIKLQQELLAIKQQQELLEKEQKLEQQRQEQEVERHRREQQLPPLRGKDRGRERAVASTEVKQKLQEFLLSKSATKDTPTNGKNHSVSRHPKLWYTAAHHTSLDQSSPPLSGTSPSYKYTLPGAQDAKDDFPLRKTASEPNLKVRSRLKQKVAERRSSPLLRRKDGNVVTSFKKRMFEVTESSVSSSSPGSGPSSPNNGPTGSVTENETSVLPPTPHAEQMVSQQRILIHEDSMNLLSLYTSPSLPNITLGLPAVPSQLNASNSLKEKQKCETQTLRQGVPLPGQYGGSIPASSSHPHVTLEGKPPNSSHQALLQHLLLKEQMRQQKLLVAGGVPLHPQSPLATKERISPGIRGTHKLPRHRPLNRTQSAPLPQSTLAQLVIQQQHQQFLEKQKQYQQQIHMNKLLSKSIEQLKQPGSHLEEAEEELQGDQAMQEDRAPSSGNSTRSDSSACVDDTLGQVGAVKVKEEPVDSDEDAQIQEMESGEQAAFMQQPFLEPTHTRALSVRQAPLAAVGMDGLEKHRLVSRTHSSPAASVLPHPAMDRPLQPGSATGIAYDPLMLKHQCVCGNSTTHPEHAGRIQSIWSRLQETGLLNKCERIQGRKASLEEIQLVHSEHHSLLYGTNPLDGQKLDPRILLGDDSQKFFSSLPCGGLGVDSDTIWNELRSSGAARMAVGCVIELASKVASGELKNGFAVVRPPGHHAEESTAMGFCFFNSVAITAKYLRDQLNISKILIVDLDVHHGNGTQQAFYADPSILYISLHRYDEGNFFPGSGAPNEVGTGLGEGYNINIAWTGGLDPPMGDVEYLEAFRTIVKPVAKEFDPDMVLVSAGFDALEGHTPPLGGYKVTAKCFGHLTKQLMTLADGRVVLALEGGHDLTAICDASEACVNALLGNELEPLAEDILHQSPNMNAVISLQKIIEIQSKYWKSVRMVAVPRGCALAGAQLQEETETVSALASLTVDVEQPFAQEDSRTAGEPMEEEPAL
modifications: left off: a dimerising Fc or GST
notes: wild-type histone deacetylase 9, a 1069 amino acid polypeptide, class II histone deacetylase
On to B1, for which the “histone deacetylase activity relative to HDAC1” value was “about 25%”; the “histone deacetylase activity relative to HDACs 4 and 5” value is roughly 50%.
